The experiment deals with Human pyruvate kinase isoform M2 (PKM2), wild type (human) (UniProt P14618). Put plainly: SEC. On the technique in general: Size exclusion chromatography separates by hydrodynamic size, large species first.

Chain of Human pyruvate kinase isoform M2 (PKM2), wild type, P14618 1-531 (enzyme; other documents disagree on this pair) (P14618 whole entry, canonical isoform): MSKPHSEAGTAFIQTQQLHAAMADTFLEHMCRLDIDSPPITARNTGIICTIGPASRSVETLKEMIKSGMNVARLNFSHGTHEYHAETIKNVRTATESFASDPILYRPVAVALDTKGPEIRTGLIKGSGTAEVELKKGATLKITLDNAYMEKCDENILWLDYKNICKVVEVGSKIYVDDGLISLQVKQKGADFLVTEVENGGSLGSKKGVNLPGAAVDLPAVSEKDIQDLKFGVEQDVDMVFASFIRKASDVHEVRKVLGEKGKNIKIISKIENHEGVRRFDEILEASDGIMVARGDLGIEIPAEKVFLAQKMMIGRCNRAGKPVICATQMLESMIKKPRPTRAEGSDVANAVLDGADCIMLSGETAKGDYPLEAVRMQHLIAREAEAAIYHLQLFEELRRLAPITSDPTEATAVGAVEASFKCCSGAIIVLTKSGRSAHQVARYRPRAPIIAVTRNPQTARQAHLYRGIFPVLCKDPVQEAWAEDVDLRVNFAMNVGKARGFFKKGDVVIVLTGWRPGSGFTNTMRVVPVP

In the case of “Human pyruvate kinase isoform M2 (PKM2), wild type, P14618 1-531 (enzyme; other documents disagree on this pair)”, the stoichiometry N (as a rule, the number of molecules, sites or subunits per partner or assembly) is 2.

Source of the values: publication PMC4995138.
